The labels stand for the following.
B1: sdAb A3, anti-Staphylococcal Enterotoxin B single domain antibody (VHH)
VHH: EVQLVESGGGLVQAGDSLRLSCTASGRTFSRAVMGWFRQAPGKEREFVAAISAAPGTAYYAFYADSVRGRFSISADSAKNTVYLQMNSLKPEDTAVYYCAADLKMQVAAYMNQRSVDYWGQGTQVTVSS
notes: also called wild type sdAb A3
B2: sdAb A3 Construct 3 (V33C M105C) (VHH)
VHH: EVQLVESGGGLVQAGDSLRLSCTASGRTFSRACMGWFRQAPGKEREFVAAISAAPGTAYYAFYADSVRGRFSISADSAKNTVYLQMNSLKPEDTAVYYCAADLKCQVAAYMNQRSVDYWGQGTQVTVSS
notes: Keeps C22/C99
B3: sdAb A3 Construct 2 (A50C A108C) (VHH)
VHH: EVQLVESGGGLVQAGDSLRLSCTASGRTFSRAVMGWFRQAPGKEREFVACISAAPGTAYYAFYADSVRGRFSISADSAKNTVYLQMNSLKPEDTAVYYCAADLKMQVCAYMNQRSVDYWGQGTQVTVSS
notes: Keeps C22/C99
B4: sdAb A3 Construct 4 (Q3C Y118C) (VHH)
VHH: EVCLVESGGGLVQAGDSLRLSCTASGRTFSRAVMGWFRQAPGKEREFVAAISAAPGTAYYAFYADSVRGRFSISADSAKNTVYLQMNSLKPEDTAVYYCAADLKMQVAAYMNQRSVDCWGQGTQVTVSS
notes: Keeps C22/C99
B5: sdAb A3 Construct 1 (A49C I73C) (VHH)
VHH: EVQLVESGGGLVQAGDSLRLSCTASGRTFSRAVMGWFRQAPGKEREFVCAISAAPGTAYYAFYADSVRGRFSCSADSAKNTVYLQMNSLKPEDTAVYYCAADLKMQVAAYMNQRSVDYWGQGTQVTVSS
notes: Keeps C22/C99

This is an account of results in PMC4272287 (PLoS ONE, 2014).

What is called Kd is the constant that tells how readily two partners part at equilibrium. Low values mean a tighter complex, high ones a looser complex.

T1 sequence (P01552 28-266): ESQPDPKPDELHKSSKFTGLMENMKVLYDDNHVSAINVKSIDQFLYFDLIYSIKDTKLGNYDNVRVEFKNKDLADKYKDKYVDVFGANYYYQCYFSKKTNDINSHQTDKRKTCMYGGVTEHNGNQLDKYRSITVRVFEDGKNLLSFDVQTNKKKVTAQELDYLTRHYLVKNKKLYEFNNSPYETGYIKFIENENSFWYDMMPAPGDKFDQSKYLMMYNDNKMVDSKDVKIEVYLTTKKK

This assay addresses T1, Staphylococcal enterotoxin B (Staphylococcus aureus, strain , UniProt P01552).
T1 construct: source: bought: Toxin technologies
Kind of assay: SPR. Particulars: both partners purified.
As to B1, the Kd came out at 230 pM.

The molecule B2 came in with a Kd of 210 pM.

The molecule B3 returned a Kd of 60 pM.

As to B4, the Kd stood at 60 pM.

For B5, the Kd is 660 pM.
